# Measurements taken from patent US20220056094A1 (JIANGSU HENGRUI MEDICINE, published 2022).
# Read-outs that look alike come from different tables or passages of the source.
# T1: medium-affinity receptor IL-2Rβ/γ on human cells (Mo7e cell line; human CD8+T and NK cells) (human, UniProt P14784 27-551; P31785 23-369)
# T1 sequence (looked up) 1: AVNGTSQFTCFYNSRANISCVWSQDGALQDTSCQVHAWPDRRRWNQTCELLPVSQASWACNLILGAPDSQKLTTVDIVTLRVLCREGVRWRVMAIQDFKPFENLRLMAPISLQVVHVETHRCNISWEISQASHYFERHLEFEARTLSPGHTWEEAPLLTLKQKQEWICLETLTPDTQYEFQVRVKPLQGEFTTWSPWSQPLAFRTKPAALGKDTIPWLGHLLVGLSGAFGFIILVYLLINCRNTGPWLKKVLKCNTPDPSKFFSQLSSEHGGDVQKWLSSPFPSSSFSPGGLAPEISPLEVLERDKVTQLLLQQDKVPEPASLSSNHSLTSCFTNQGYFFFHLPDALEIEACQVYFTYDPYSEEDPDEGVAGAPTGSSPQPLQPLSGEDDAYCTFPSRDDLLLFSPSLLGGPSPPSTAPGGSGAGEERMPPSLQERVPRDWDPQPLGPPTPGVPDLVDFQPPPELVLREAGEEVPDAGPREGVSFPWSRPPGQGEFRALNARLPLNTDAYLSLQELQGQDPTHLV
# T1 sequence (looked up) 2: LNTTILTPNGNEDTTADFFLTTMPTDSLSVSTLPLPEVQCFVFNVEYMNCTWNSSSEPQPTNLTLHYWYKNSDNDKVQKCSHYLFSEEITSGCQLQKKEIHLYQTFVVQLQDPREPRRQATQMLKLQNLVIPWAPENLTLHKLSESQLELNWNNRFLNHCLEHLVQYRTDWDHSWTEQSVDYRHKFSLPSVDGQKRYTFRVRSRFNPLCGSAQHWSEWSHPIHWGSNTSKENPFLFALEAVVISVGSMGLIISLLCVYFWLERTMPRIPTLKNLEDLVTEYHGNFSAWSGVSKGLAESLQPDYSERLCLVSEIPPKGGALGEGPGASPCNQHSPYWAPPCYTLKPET
# T2: high-affinity receptor IL-2Rα/β/γ on CTLL2 cells (mouse-derived cell line) (mouse, UniProt P01590 22-268; P16297 27-539; P34902 23-369)
# T2 sequence (looked up) 1: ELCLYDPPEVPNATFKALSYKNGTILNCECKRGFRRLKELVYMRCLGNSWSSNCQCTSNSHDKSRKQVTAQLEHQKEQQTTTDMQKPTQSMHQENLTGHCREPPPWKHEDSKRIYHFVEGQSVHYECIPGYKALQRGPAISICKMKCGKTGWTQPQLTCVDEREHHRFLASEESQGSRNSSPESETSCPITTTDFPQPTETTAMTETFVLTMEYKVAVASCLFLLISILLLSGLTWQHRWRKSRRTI
# T2 sequence (looked up) 2: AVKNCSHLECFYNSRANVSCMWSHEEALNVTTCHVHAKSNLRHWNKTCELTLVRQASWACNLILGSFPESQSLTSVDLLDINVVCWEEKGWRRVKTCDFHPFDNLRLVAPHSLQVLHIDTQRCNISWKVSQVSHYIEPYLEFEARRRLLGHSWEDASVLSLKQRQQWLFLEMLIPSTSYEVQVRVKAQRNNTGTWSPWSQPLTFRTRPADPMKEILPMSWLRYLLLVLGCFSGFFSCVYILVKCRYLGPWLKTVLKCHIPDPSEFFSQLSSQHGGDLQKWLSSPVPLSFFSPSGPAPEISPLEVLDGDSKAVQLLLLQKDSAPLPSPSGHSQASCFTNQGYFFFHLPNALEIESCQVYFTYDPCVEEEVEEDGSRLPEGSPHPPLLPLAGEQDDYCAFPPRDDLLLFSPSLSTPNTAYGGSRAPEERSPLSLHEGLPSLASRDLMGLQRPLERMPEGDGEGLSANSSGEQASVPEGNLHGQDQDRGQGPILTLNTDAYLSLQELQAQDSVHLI
# T2 sequence (looked up) 3: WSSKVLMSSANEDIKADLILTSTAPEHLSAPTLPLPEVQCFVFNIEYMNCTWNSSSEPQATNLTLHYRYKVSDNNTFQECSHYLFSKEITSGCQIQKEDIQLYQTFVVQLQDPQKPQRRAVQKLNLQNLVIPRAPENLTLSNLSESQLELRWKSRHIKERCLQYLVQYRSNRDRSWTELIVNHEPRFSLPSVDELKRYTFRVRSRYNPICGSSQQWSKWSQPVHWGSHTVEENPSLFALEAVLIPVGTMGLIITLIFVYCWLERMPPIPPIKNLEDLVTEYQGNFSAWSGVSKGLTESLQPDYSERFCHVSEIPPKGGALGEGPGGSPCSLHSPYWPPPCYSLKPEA
# Legend:
# [1] = target: T3, IL-2Rβ/γ-Fc heterodimer (IL-2Rβ-Fc-hole with IL-2Rγ-Fc-knob); experiment: SPR (Biacore), IL-2Rβ/γ-Fc captured on Protein A chip, 1:1 model
# T3 construct: Co-expressed in HEK293 cells and purified with Protein A and Superdex 200
# Protocol: The Protein A sensor chip (GE, Cat #29127556) of the Biacore instrument (Biacore T200, GE) was used to capture IL-2Rβ/γ-Fc, wherein IL-2Rβ/γ-Fc was diluted with 1×HBS-EP to 1 μg/mL, and flowed at a flow rate of 10 μL/min for 30 seconds. […] The Biacore instrument (Biacore X100, GE) was used to detect the reaction in real time, to obtain association and dissociation curves. After each cycle of dissociation was completed, the chip was washed and regenerated with 10 mM Gly-HCl pH 1.5.
# [2] = target: T1, medium-affinity receptor IL-2Rβ/γ on …; experiment: cell-based or functional assay
# [3] = target: T2, high-affinity receptor IL-2Rα/β/γ on …; experiment: cell-based or functional assay
# [4] = target: T2, high-affinity receptor IL-2Rα/β/γ on …; experiment: cell-based or functional assay; remark: listed apart in the source
# [5] = target: T2, high-affinity receptor IL-2Rα/β/γ on …; experiment: cell-based or functional assay; remark: listed apart in the source
# T3 sequence (chain, as listed by the source limits assumed, chain 1 of 2): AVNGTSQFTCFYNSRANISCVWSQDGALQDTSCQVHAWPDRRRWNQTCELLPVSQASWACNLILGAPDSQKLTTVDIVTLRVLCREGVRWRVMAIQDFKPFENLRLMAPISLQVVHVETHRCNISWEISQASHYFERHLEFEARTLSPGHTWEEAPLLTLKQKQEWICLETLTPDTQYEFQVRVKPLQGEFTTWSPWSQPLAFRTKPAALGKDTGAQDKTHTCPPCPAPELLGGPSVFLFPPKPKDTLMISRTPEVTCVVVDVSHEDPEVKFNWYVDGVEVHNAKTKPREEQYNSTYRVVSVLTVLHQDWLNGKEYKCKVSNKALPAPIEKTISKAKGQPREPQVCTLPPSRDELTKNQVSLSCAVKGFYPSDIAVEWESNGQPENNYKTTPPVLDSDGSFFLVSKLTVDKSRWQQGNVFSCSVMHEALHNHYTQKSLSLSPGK
# T3 sequence (chain, as listed by the source limits assumed, chain 2 of 2): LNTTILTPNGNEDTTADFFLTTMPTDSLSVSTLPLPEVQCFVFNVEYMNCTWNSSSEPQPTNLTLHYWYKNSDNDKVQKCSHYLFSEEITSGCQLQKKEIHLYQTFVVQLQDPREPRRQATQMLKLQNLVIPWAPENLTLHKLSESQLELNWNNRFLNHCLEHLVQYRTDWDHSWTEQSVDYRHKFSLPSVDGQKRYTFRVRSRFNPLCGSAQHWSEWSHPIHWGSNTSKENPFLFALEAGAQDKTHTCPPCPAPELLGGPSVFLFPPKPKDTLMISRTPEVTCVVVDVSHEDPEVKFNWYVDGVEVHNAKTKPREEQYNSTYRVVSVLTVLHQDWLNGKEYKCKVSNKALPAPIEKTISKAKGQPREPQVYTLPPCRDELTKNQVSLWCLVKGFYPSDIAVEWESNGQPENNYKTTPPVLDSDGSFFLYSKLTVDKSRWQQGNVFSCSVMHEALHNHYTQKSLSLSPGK
Kd [1],koff [1],kon [1],EC50 (Mo7e cell proliferation) [2],relative biological activity (Mo7e cell proliferation) [2],EC50 (CTLL2 cell proliferation) [3],relative biological activity (CTLL2 cell proliferation) [3],EC50 (STAT5 phosphorylation in CTLL2 cells) [4],relative biological activity (STAT5 phosphorylation in CTLL2 cells) [4],relative biological activity (CTLL2 cell proliferation) [5],Binder
0.266 nM,0.00043 s⁻¹,1.62e+06 M⁻¹ s⁻¹,1.78 nM,137%,4.8 nM,1%,–,–,–,"IL-2-10 (N26Q/N30S/F42A/L72G) (ligand, The entry already carries the mutations and C125A and begins with M. Made in E. coli) MAPTSSSTKKTQLQLEHLLLDLQMILQGINSYKNPKLTRMLTAKFYMPKKATELKHLQCLEEELKPLEEVLNGAQSKNFHLRPRDLISNINVIVLELKGSETTFMCEYADETATIVEFLNRWITFAQSIISTLT"
0.261 nM,0.000215 s⁻¹,822000 M⁻¹ s⁻¹,–,–,–,–,2.45 nM,0.41%,4%,"IL-2-07 (F42A/Y45A) (ligand, The entry already carries the mutations and C125A and begins with M. Made in E. coli) MAPTSSSTKKTQLQLEHLLLDLQMILNGINNYKNPKLTRMLTAKFAMPKKATELKHLQCLEEELKPLEEVLNLAQSKNFHLRPRDLISNINVIVLELKGSETTFMCEYADETATIVEFLNRWITFAQSIISTLT"
0.344 nM,0.000222 s⁻¹,646000 M⁻¹ s⁻¹,–,–,–,–,4.02 nM,0.25%,2%,"IL-2-09 (Y45A/L72G) (ligand, The entry already carries the mutations and C125A and begins with M. Made in E. coli) MAPTSSSTKKTQLQLEHLLLDLQMILNGINNYKNPKLTRMLTFKFAMPKKATELKHLQCLEEELKPLEEVLNGAQSKNFHLRPRDLISNINVIVLELKGSETTFMCEYADETATIVEFLNRWITFAQSIISTLT"
0.224 nM,0.000206 s⁻¹,920000 M⁻¹ s⁻¹,–,–,–,–,3.93 nM,0.25%,7%,"IL-2-08 (F42A/L72G) (ligand, The entry already carries the mutations and C125A and begins with M. Made in E. coli) MAPTSSSTKKTQLQLEHLLLDLQMILNGINNYKNPKLTRMLTAKFYMPKKATELKHLQCLEEELKPLEEVLNGAQSKNFHLRPRDLISNINVIVLELKGSETTFMCEYADETATIVEFLNRWITFAQSIISTLT"
0.509 nM,0.000436 s⁻¹,856000 M⁻¹ s⁻¹,–,–,–,–,–,–,4%,"IL-2-06 (… at positions 29-44 mutated into QSMHIDATL) (ligand, The entry already carries the replacement and C125A and begins with M. Made in E. coli) MAPTSSSTKKTQLQLEHLLLDLQMILNGIQSMHIDATLYMPKKATELKHLQCLEEELKPLEEVLNLAQSKNFHLRPRDLISNINVIVLELKGSETTFMCEYADETATIVEFLNRWITFAQSIISTLT"
